Source: patent US20250051478A1 (Y MABS THERAPEUTICS, published 2025)

Experiments:
CD38 [1] = target: T1, CD38 (UniProt P28907 43-300, limits assumed); assay: SPR; YMS9d diluted to 1 mg/ml from the 10 mg/ml solution
T1 construct: also called cyclic ADP ribose hydrolase

CD38 [2] = target: T1, CD38; assay: SPR; YMS9d diluted to 1 mg/ml from the 20 mg/ml solution

B1: YMS9d (bispecific antibody)
chain: QVQLQESGPGLVKPSETLSLTCTVSGFSLTSYGVHWVRQPPGKGLEWIGVMWRGGSTDYNAAFKSRVTISKDNSKNQVSLKLSSVTAADTAVYYCAKSMITTGFVMDSWGQGTLVTVSSGGGGSGGGGSGGGGSGGGGSGGGGSGGGGSDIQLTQSPSSLSASVGDRVTITCKASEDIYNRLTWYQQKPGKAPKLLISGATSLETGVPSRFSGSGSGKDYTFTISSLQPEDFATYYCQQYWSNPYTFGQGTKLEIKGGGGSGGGGSGGGGSGGGGSHVQLVESGGGLVQPGGSLRLSCAASGFSLTDYGVHWVRQAPGKGLEWLGVIWSGGGTAYNTALISRFTISRDNSKNTLYLQMNSLRAEDTAVYYCARRGSYPYNYFDAWGQGTLVTVSSGGGGSGGGGSGGGGSGGGGSGGGGSGGGGSQAVVTQEPSLTVSPGGTVTLTCGSSTGAVTASNYANWVQQKPGQAPRGLIGGHNNRPPGVPARFSGSLLGGKAALTLLGAQPEDEAEYYCALWYSDHWVIGGGTKLTVLGTPLGDTTHTSGKPLDGEYFTLQIRGRERFEMFRELNEALELKDAQAGKEPGGSGGAP
modifications: Self-assembles into tetramers through the p53 SADA domain; labelled with 125I in Example 8.
notes: also called CD38-SADA construct without disulfide bonds; CD38-SADA
- Kd (CD38 [1]): 7.5 nM
- koff (CD38 [1]): 0.0011 s⁻¹
- kon (CD38 [1]): 140000 M⁻¹ s⁻¹
- Kd (CD38 [2]): 8.1 nM
- koff (CD38 [2]): 0.0011 s⁻¹
- kon (CD38 [2]): 130000 M⁻¹ s⁻¹
